Usually IC50 stands for the concentration at which inhibition is half-maximal. The low end stands for inhibition by little substance, the high end for a need for much substance. One may read the Kd as a measure of binding affinity in units of concentration. Low readings indicate tighter binding, high ones weaker binding.

This note sets out measurements from patent US20240124572A1 (Bayer, published 2024).

The target in experiment [1] is murine IL-11 (Invigate, e.g., lot #C210819-09) (mouse) (UniProt P47873). Kind of experiment: cell-based or functional assay.
Experiment [2] concerns the target human IL-11 (Invigate, e.g., lot #C121021-19) (human) (UniProt P20809). Kind of experiment: cell-based or functional assay.
Experiment [3] concerns the target murine IL-11 (Invigate, e.g., lot #C210819-09) (mouse) (UniProt P47873). Kind of experiment: Tri-complex ELISA (mIL-11, mIL-11Ra-Fc, mgp130-Fc). On the technique in general: An ELISA detects its analyte on a solid surface through an enzyme-linked reagent.
For experiment [4], the target named is human IL-11 (Invigate, e.g., lot #C121021-19) (human) (UniProt P20809). Kind of experiment: Di-complex ELISA (hIL-11 coated, canine IL11RA-hFc).
Experiment [5] shares this target. Description: Tri-complex ELISA (hIL-11, mIL-11Ra-Fc, hgp130-Fc).
Experiment [6] deals with murine IL-11 (Invigate, e.g., lot #C210819-09) (mouse) (UniProt P47873). Kind of experiment: Di-complex ELISA (mIL-11 coated, canine IL11RA-hFc).
Experiment [7] has the same target. Kind of experiment: SPR, antibody captured, single IL-11 concentration 200 nM. For orientation: Surface plasmon resonance follows binding to a sensor surface in real time, without labels.
The target in experiment [8] is human IL-11 (Invigate, e.g., lot #C121021-19) (human) (UniProt P20809). The experiment is described as above.
For experiment [9], the target named is T1, murine IL-11 (Invigate, e.g., lot #C210819-09) (mouse, UniProt P47873 22-199).
T1 construct: Biotinylated and captured on streptavidin plates in the Di-complex ELISA; unmodified analyte in SPR; also called mIL11; mIL-11
T1 sequence: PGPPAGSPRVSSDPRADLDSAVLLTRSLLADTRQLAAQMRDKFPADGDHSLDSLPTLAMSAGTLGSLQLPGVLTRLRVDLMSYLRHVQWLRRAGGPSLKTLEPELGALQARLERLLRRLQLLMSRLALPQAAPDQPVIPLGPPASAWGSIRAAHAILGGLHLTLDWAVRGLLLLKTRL
Description: Tri-complex ELISA (mIL-11, mIL-11Ra-Fc, mgp130-Fc).

Experiment [10] has as its target cynomolgus IL-11 (cynomolgus) (UniProt P20808). Description: cell-based or functional assay.
Experiment [11] addresses human IL-11 (human) (UniProt P20809). Description: cell-based or functional assay.
Experiment [12] shares this target. Kind of experiment: Di-complex ELISA, competitor canine IL11RA-hFc, IL-11 immobilised.
The target in experiment [13] is T2, murine IL-11 (mouse, UniProt P47873 22-199).
T2 construct: bought from Invigate; also called mIL-11; mIL11
T2 sequence: T1 sequence
Kind of experiment: SPR, antibody captured, IL-11 analyte. On the procedure: Antibodies were captured via anti-mouse Fc IgGs (“Mouse antibody capture kit, Order No. BR100383, Cytiva) covalently amine coupled to a Series S CMS sensor chip (Cytiva). The amine coupling was carried out according to the manufacturer's instructions using 1-ethyl-3-(3-dimethylaminopropyl) carbodiimide hydrochloride (EDC), N-hydroxysuccinimide ([…]) and ethanolamine HCl, pH 8.5 (“Amine Coupling Kit” BR-1000-50, Cytiva). Human IL-11 (Invigate, e.g., lot #C121021-19), and murine IL-11 (Invigate, e.g., lot #C210819-09) were used as analytes. […] Based on that experiment an IL-11 concentration range was chosen to optimally determine kinetics and affinity of anti-IL-11 antibodies in multicycle kinetics mode. The sensor surface was regenerated with glycine pH 1.7 after each antigen injection. Obtained sensorgrams were double referenced (subtraction of reference flow cell signal and buffer injection) and were fitted to a 1:1 Langmuir binding model to derive kinetic data using the Biacore T200 Evaluation software or the Biacore Insight software.
42 hits from the IL-11 and IL-2Ra screening analysis were selected, expressed by transient transfection of mammalian cells and purified as described in Example 15. Antibodies were then tested for human IL-11 and murine IL-11 binding by SPR as described in Example 16.

For “MA5-30695 (Thermo Fisher Scientific, clone 9) (antibody)”, the values for the Efficacy (%)*, RGA in [1] and in experiment [2] were 15.6% and 23.9%, respectively. Moreover, the Efficacy (%) worked out at 1.5% in experiment [3], 0% in experiment [4], 0% in [5] and 0% in experiment [6].
For “MA5-30696 (Thermo Fisher Scientific, clone 12) (antibody)”, the Efficacy (%)*, RGA in experiment [1] amounted to 17.2%; in [2] it was 4.9%. For the same molecule, the Efficacy (%) in experiment [3] turned out to be 4.3%; in experiment [4] it was 8.1%; in experiment [5], 4.7%; in experiment [6] it was 3.1%.
For the molecule LS-C104441 (LS-bio) (antibody), the Efficacy (%)*, RGA in experiment [1] worked out at 88%; in experiment [2], 42.6%. In experiment [1], this molecule displayed an IC50 [M], RGA of 3.9e-09 M. Further, the Efficacy (%) in [3] is 98.4%; in experiment [4], 71.5%; in experiment [5], 65.6%; in experiment [6] it was 91.2%. The IC50 in [3] turned out to be 3.8 nM; in [4], 5.3 nM; in experiment [5], 20 nM; in experiment [6], 3.5 nM. For the same molecule, the Kd was 2.2 nM in experiment [7] and 3.9 nM in experiment [8].
In [1], “TPP-14250 (R&D Systems, #MAB218) (antibody)” returned an Efficacy (%), Stat3 reporter gene assay of 69.1% and an IC50 [M], Stat3 reporter gene assay of 1.4e-07 M. In experiment [2], this molecule had an Efficacy (%), Stat3 reporter gene assay of 27.1% and an IC50 [M], Stat3 reporter gene assay of 2.4e-10 M. In experiment [3], this molecule gave an Efficacy (%) of 81.1% and an IC50 of 8 nM. In experiment [5], the Efficacy (%) was found to be 81.1% and the IC50 is 15 nM.
Turning to “GTX34009 (Genetex, clone 6D9A1) (antibody)”, the Efficacy (%)*, RGA in experiment [1] is 0%; in experiment [2] it was 21.3%. Besides, the Efficacy (%) in experiment [3] was 0%; in experiment [4], 10.3%; in experiment [5], 1.1%; in experiment [6], 11.7%.
In the case of “MA5-23711 (Thermo Fisher Scientific, clone 22616) (antibody)”, the Efficacy (%)*, RGA in experiment [1] was found to be 47.6%; in experiment [2] it was 19.9%. The Efficacy (%) in experiment [3] was 62.3%; in experiment [4] it was 51.1%; in experiment [5] it was 34.1%; in experiment [6], 70.5%. In addition, the values for the IC50 in experiment [4], in experiment [5] and in experiment [6] were 60 nM, 19 nM and 29 nM, respectively. Besides, the Kd is 2 nM in [7] and 3.6 nM in [8].
For “LS-C193526 (LS-bio, clone KT8) (antibody)”, the Efficacy (%)*, RGA in experiment [1] amounted to 88.3%; in experiment [2], 52.7%. Moreover, the IC50 [M], RGA turned out to be 5.6e-09 M in experiment [1] and 5e-08 M in experiment [2]. Moreover, the Efficacy (%) in experiment [3] was 90.3%; in [4], 90.1%; in experiment [5] it was 78.5%; in experiment [6], 96.2%. Moreover, the IC50 is 6.6 nM in experiment [3], 10 nM in experiment [4], 10 nM in experiment [5] and 6.5 nM in experiment [6]. Also, the equilibrium dissociation constant (Kd) in [7] worked out at 6.2 nM; in experiment [8], 6.3 nM.
“GTX52814 (Genetex, clone 9T27) (antibody)”: the figures for the Efficacy (%)*, RGA in experiment [1] and in [2] were 75.5% and 5.1%, respectively. For the same molecule, the Efficacy (%) turned out to be 106% in [3], 74.9% in experiment [4], 36.9% in experiment [5] and 89.9% in experiment [6]. Besides, the IC50 in experiment [3] was determined as 17 nM; in experiment [4], 1.9 nM; in experiment [5], 14 nM; in experiment [6], 4.7 nM. For the same molecule, the Kd in experiment [7] is 2 nM; in experiment [8], 3.3 nM.

B1: TPP-18087 (antibody, mouse IgG1, V domains shown)
VH: EVQLLESGGGLVQPGGSLRLSCAASGFTFSHYDMNWLRQAPGKGLEWVGVISYDGSNKFYADFVKGRFTISRDNSKNTLYLQMNSLRAEDTAVYYCARTPGSHFDYWGQGTLVTVSS
VL: QSVLTQPPSASGTPGQRVTISCSGSSSNIGNNAVNWYQQLPGTAPKLLIYYDDLLPSGVPDRFSGSKSGTSASLAISGLRSEDEADYYCSAWDDSLNGVVFGGGTKLTVLG
notes: mIgG1, Lambda
Consider B1, for which the figures for the “Efficacy (%)” value in experiment [9] and in experiment [12] were 25% and 0%, respectively. The Efficacy (%) (RGA) came out at 47.7% in experiment [10] and 47.8% in [11].

B2: TPP-26333 (antibody, IgG1, V domains shown)
VH: EVQLLESGGGLVQPGGSLRLSCAASGFTFSSYGFHWVRQAPGKGLEWVSVISYDGSYKYYADSVKGRFTISRDNSKNTLYLQMNSLRAEDTAVYYCAAGVPDYWGQGTLVTVSS
VL: QSVLTQPPSASGTPGQRVTISCTGSSSNIGAGYDVHWYQQLPGTAPKLLIYSNNERPSGVPDRFSGSKSGTSASLAISGLRSEDEADYYCAAWDDSLNGPVFGGGTKLTVL
Regarding B2, the binding result in experiment [13] is “no binding”.
